Results taken from the supplement of paper PMC10567573.
± gives the standard deviation.

Assay: protein stability index of a GFP-peptide fusion (GPS, HEK-293T) (PSI 1-6); higher = more stable
[1] = treatment: DMSO, c terminus: a fixed tail appended
[2] = treatment: MLN4924 1 uM, 8 h, c terminus: a fixed tail appended
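Note: 24-mer peptide tiles fused after GFP, lentivirally expressed, FACS-sorted into six equal bins by GFP/DsRed ratio, decoded by Illumina sequencing, PSI is the read-weighted mean bin number.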

Sequence	protein stability index [1]	protein stability index [2]	protein stability index (treatment: DMSO, c terminus: native)	protein stability index (treatment: MLN4924 1 uM, 8 h, c terminus: native)
RERADIGGLMARPEYREWNPELIK [FAM107A]	4.16 ± 0.12	3.8 ± 0.18	–	–
NPFYHCLVAEILPAPGKLLGPCVV [SAT2]	3.16 ± 0.97	3.07 ± 1.2	–	–
CVLTTPCLTQSTAAPAVRASSSPV [SLA]	3.47 ± 0.13	3.49 ± 0.14	–	–
VFGFIAAYVLSKYQYFVCPVEYRS [CDS1]	3.38 ± 0.39	3.15 ± 0.27	–	–
AAEVGTGQYATTKGISQTNLITTV [EPB41L3]	3.54 ± 0.13	3.5 ± 0.41	–	–
RQVPGSDPACYEFLWGPRALIETS [MAGEA6]	2.62 ± 0.56	2.85 ± 0.35	–	–
VYHIECFRCSVCSRQLLPGDEFSL [ISL2]	2.34 ± 0.14	2.4 ± 0.23	–	–
GIEPLYIKAEPASPDSPKGSSETE [ESRRA]	5.57 ± 0.21	5.36 ± 0.33	–	–
STFIRRYSRYLNEKAFSYRQMAFD [SNAP91]	2.11 ± 0.24	2.22 ± 0.28	–	–
IKQIQQLFEEILSNSRQLKWLSCG [FBXO33]	3.57 ± 1.6	1.94 ± 0.58	–	–
SEMKKCSDYESIEVPDSYTGPRLS [PPEF2]	4.58 ± 0.35	4.53 ± 0.11	–	–
NQKLFDLRGKFKRPPLRRVRMSAD [TNNI2]	3.17 ± 0.21	3.51 ± 0.26	–	–
GDSFSHSSNRIRHLRTHTGERPYK [ZNF263]	4.28 ± 0.14	4.62 ± 0.16	–	–
RLKKQLRAAQLQHSEKMAQYLEEE [CCDC6]	4.06 ± 0.29	4.11 ± 0.26	–	–
NTNPKEVQEMRNKIREQNLQDIKT [ADD1]	4.98 ± 0.18	5.11 ± 0.13	–	–
KPDGSRHQDVPSQDDSKPTQRQFT [AASDHPPT]	5.44 ± 0.14	5.353 ± 0.026	–	–
MLGLALGGLVVSAASLAGCLGALC [TSPAN10]	3.15 ± 0.55	3.04 ± 0.37	–	–
LREINFKIVEFNPMVLKGKIRPDS [GLT8D2]	2.39 ± 0.34	2.41 ± 0.41	–	–
RELNDRLAVYIDKVRSLETENSAL [LMNB1]	3.33 ± 0.24	3.04 ± 0.34	–	–
VAVKKKLQLYFWKDREFHELQGDF [VPS39]	2.12 ± 0.3	2.06 ± 0.58	–	–
LYILGNFMQLKCFSSQKLKCLSMF [PNLIPRP1]	3.67 ± 0.66	3.46 ± 0.73	–	–
QEAVPLGLGLEDADWTQGLPWRFE [TEX19]	3.34 ± 0.21	3.34 ± 0.3	–	–

Sequence	protein stability index [1]	protein stability index [2]	protein stability index (treatment: DMSO, c terminus: native)	protein stability index (treatment: MLN4924 1 uM, 8 h, c terminus: native)
VKVIRDFTTNKCKGFGFVTMTNYD [ELAVL3]	2.35 ± 0.47	2.15 ± 0.22	–	–
QNCTDEGEREAIQKSVTRSCLLEE [POP5]	5.17 ± 0.3	5.3 ± 0.33	–	–
IAVLPRYVEIRTFEPRLLVQSIEL [VPS39]	2.97 ± 0.57	2.88 ± 0.38	–	–
QISMELAKVNYVKNNICFMSHHQE [SLC2A12]	2.6 ± 0.16	2.41 ± 0.27	–	–
LLHSQARLAELEAQVRKLELERAQ [FBF1]	3.68 ± 0.15	3.5 ± 0.58	–	–
QENYLEYRQVPGSDPARYEFLWGP [MAGEA10]	3.28 ± 0.27	3.54 ± 0.32	–	–
IQAINGESTELMTHLEAQNRIKGC [PDLIM4]	4.1 ± 0.19	4.15 ± 0.14	–	–
KVTRLKSLALDIDRDAEDQNRYLD [BET1L]	4.44 ± 0.17	4.6 ± 0.18	–	–
AVGYQPEYSKFCRMSYQDPAQLSC [NFE2L1]	2.63 ± 0.41	2.2 ± 0.44	–	–
RVNEKEIVRLRTIGELLAPAAPFD [WSB1]	3.44 ± 0.2	3.5 ± 0.21	–	–
GRTLIGFLRSIDQFANLVLHQTVE [LSM1]	3.37 ± 0.64	2.75 ± 0.5	–	–
AKLALYPCASLLAFASTCLLSRFS [TMEM175]	2.45 ± 0.49	2.52 ± 0.52	–	–
QNINAPAPATTSSWEVVRNPLIAS [C22orf31]	3.65 ± 0.32	3.7 ± 0.16	–	–
SSEEFEDKWFRKIKDHFCPFENQF [C8orf76]	2.87 ± 0.19	2.74 ± 0.5	–	–
HPAATALHAELCQAGSSQGLSLCQ [LPCAT4]	4.22 ± 0.29	4.13 ± 0.16	–	–
HSGYDFGYLIKILTNSNLPEEELD [CNOT7]	2.27 ± 0.19	2.48 ± 0.3	–	–
SELERESKVVVPPLPGKAFLRQLP [SNX3]	3.67 ± 0.18	3.86 ± 0.59	–	–
SAIQALRSSVSRVFDCLKDGMRNK [MED27]	2.7 ± 0.33	2.49 ± 0.28	–	–
GSLGPVPVLRFDALWQVLARDCFA [TRIM14]	2.42 ± 0.83	2.89 ± 0.43	–	–
NVGGALYYTTMQTLTKQDTMLKAM [KCTD10]	2.6 ± 0.35	2.38 ± 0.54	–	–
WFIHLVFVVLAFLTGVLCSYPNPN [TMEM192]	3.346 ± 0.002	2.89 ± 0.56	–	–
QDFAKDLLKTLYNSIKNEKLEWAI [PSD2]	2.32 ± 0.47	2.23 ± 0.25	–	–

Sequence	protein stability index [1]	protein stability index [2]	protein stability index (treatment: DMSO, c terminus: native)	protein stability index (treatment: MLN4924 1 uM, 8 h, c terminus: native)
CSLDKRVILIFHCEFSSERGPRMC [CDC25B]	2.28 ± 0.63	2.54 ± 0.83	–	–
CTGITRLQRWCRAKHMGLEPPPEV [POLD4]	2.49 ± 0.31	2.96 ± 0.31	–	–
QHHEALSLFCYEDQEAVCLICAIS [TRIM39]	2.26 ± 0.23	2.35 ± 0.18	–	–
ISEKLTLLPTLYEIHSKTTAYSRL [RNF180]	2.51 ± 0.29	2.06 ± 0.085	–	–
HMAKERAHSTASHSSSNSEDTEM [PDZK1]	–	–	5.48 ± 0.26	5.39 ± 0.27
CRYLNFTKGEEISVYVKLAGERED [MIA2]	2.52 ± 0.26	2.77 ± 0.22	–	–
ELVKSGVLGADGVCMTFMKQIAGG [INTS3]	2.27 ± 0.52	2.49 ± 0.068	–	–
FWLQNSSPSSDRVSAIIWEGNECK [PHTF1]	2.41 ± 0.32	3.07 ± 0.4	–	–
HPIEEAAEEHREKLLKQMRILWKK [TRIM43]	3.45 ± 0.39	3.7 ± 0.58	–	–
LVPFVGKVHIGYLPNKQVLGLSKL [GCH1]	2.78 ± 0.19	2.06 ± 0.37	–	–
QEYNIPGVIQSVIGWKTVRMYPFQ [CDS2]	2.45 ± 0.67	2.42 ± 0.3	–	–
YVIVSGAQRKEERWDMADNEQVLT [YJU2B]	2.88 ± 0.37	3.19 ± 0.24	–	–
QFAISRELIRNIYNSFHKLRDRAE [SNX8]	2.19 ± 0.13	2.23 ± 0.21	–	–
AVEISDHPGEHEVGEPEFHYIAGA [CPXM2]	4.82 ± 0.57	5.17 ± 0.32	–	–
MLIFSLALEEPEKMGLQERSETFL [DNAAF3]	2.18 ± 0.32	2.38 ± 0.12	–	–
ANGSEIHKHVHFSSSFTSIASEWF [SLC22A15]	2.44 ± 0.32	2.39 ± 0.36	–	–
VQELCKQLHAKIDAAEEEKYDMEV [TNNI2]	4.81 ± 0.28	4.74 ± 0.1	–	–
TVIFYGADSEQADIARMLYKDTCH [ZMYND11]	2.28 ± 0.17	2.68 ± 0.4	–	–
SSQERKFMEERELLGQDEETAMRK [RSPH3]	5.47 ± 0.38	5.51 ± 0.3	–	–
LKPTLTIIKTEKVDLELFPSPDME [ETS1]	3.4 ± 0.18	3.21 ± 0.32	–	–
TSFLQHPWDESGSGCLPPEPLFEA [FOXJ1]	3.56 ± 0.22	3.62 ± 0.35	–	–
AQVRKLELERAQHELLLGSLQQQH [FBF1]	3.62 ± 0.18	3.71 ± 0.17	–	–

Sequence	protein stability index [1]	protein stability index [2]	protein stability index (treatment: DMSO, c terminus: native)	protein stability index (treatment: MLN4924 1 uM, 8 h, c terminus: native)
LADSDTLSSAEENEPSQAETAVEG [C18orf25]	5.55 ± 0.33	5.54 ± 0.16	–	–
VAGILSLLLGTAYSFYLFHPLAYG [POMT2]	3.16 ± 0.24	2.98 ± 0.3	–	–
DMEKILEIIRVILKLYEQWKNFDE [CCNC]	2.47 ± 0.2	2.66 ± 0.42	–	–
PNSTKNQSLPKASPVTTSPTAATT [LCOR]	4.91 ± 0.23	5.03 ± 0.26	–	–
LDEQNKRPCRKFLLTGQCDFGSNC [ZMAT5]	3.34 ± 0.42	3.323 ± 0.006	–	–
SEWQRKLEAAEALLTLRNSAQAPP [DMRTC1]	4.45 ± 0.55	4.63 ± 0.26	–	–
HKRAIMPYGVYKKQQKDPSEEAAV [ATE1]	4.3 ± 0.32	4.44 ± 0.11	–	–
DQQNPTLGETPENSNLEEPLNPKP [ZNF449]	5.6 ± 0.19	5.29 ± 0.23	–	–
HFQPNSPASDLEAALEAAGEGLNV [NANOGP8]	5.05 ± 0.26	5.24 ± 0.28	–	–
CKIRIQRQLEIMGKEVSGDQIEDM [STX11]	4.01 ± 0.2	3.94 ± 0.12	–	–
TMARIRRVYVSGLMKGGADLFVEN [APMAP]	2.2 ± 0.3	2.07 ± 0.25	–	–
SALTDRTSRAPSTYTYTSRPRALP [RSPH3]	4.01 ± 0.26	3.7 ± 0.29	–	–
GADNIDVSHPIIYRGAVYADNMEF [FEM1B]	3.11 ± 0.17	3.21 ± 0.48	–	–
GGDYGLVTAGCGFGKDFRKGLLKK [PPTC7]	3.22 ± 0.36	3.6 ± 0.48	–	–
AFFASHQCSNRIGSMKIKSSWDID [FBXO34]	2.46 ± 0.15	2.42 ± 0.17	–	–
QRVVYLEGCGPPLRRWLRANLAAS [TSPAN10]	2.26 ± 0.33	2.11 ± 0.24	–	–
ISCVICNDIMAYMFGFFFGRTPLI [CDS2]	3.31 ± 0.35	2.92 ± 0.48	–	–
TAHADEFDCPSELQHTQELFPQWH [STEAP1]	3.79 ± 0.15	3.84 ± 0.07	–	–
PQRYPACAQMLPPNLSPHAPWNYH [TRAF3IP2]	2.31 ± 0.37	2.11 ± 0.25	–	–
SFRELLTFFCTNATIHGAIRLVCS [SCNN1D]	2.85 ± 0.36	2.99 ± 0.39	–	–
HNCVDLMQAAEVFSQKHFPEVVQH [KLHL12]	3.17 ± 0.16	3.14 ± 0.38	–	–
TPSARRNYRIAGARLMRSNYPPPL [C6orf223]	2.92 ± 0.14	3.08 ± 0.22	–	–
